How the values were obtained:
[1] = molecular target: native human Matriptase on cells (human) (UniProt Q9Y5Y6); experiment: FACS on 22Rv1 cells, antibody at 1 µg/ml
[2] = molecular target: Rhesus Macaque MTSP-1 on 4MBr5 cells (rhesus macaque) (UniProt H9ZCT3); experiment: FACS on 4MBr5 monkey lung epithelial cells, antibody at 1 µg/ml
[3] = molecular target: T1, Matriptase (soluble enzyme, form not stated) (human, UniProt Q9Y5Y6 615-855, limits assumed); experiment: competition ELISA: 125 ng/ml biotinylated MTSP1 pre-incubated 1 hour with titrated HAI-1, then transferred to a sc95/96 coated plate, bound MTSP detected with SA-pod; competitor: plate-coated sc95/96
T1 construct: also called Matriptase-1; MT-SP1
T1 sequence: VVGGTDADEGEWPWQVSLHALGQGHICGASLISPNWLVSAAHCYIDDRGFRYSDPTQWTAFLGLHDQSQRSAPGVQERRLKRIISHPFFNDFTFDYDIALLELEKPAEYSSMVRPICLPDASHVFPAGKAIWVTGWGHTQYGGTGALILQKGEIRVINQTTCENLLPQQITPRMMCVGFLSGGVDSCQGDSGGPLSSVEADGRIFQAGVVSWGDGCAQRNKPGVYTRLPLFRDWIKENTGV

## IgG1 irrelevant control antibody
[1]
  geomean (geomean fluorescence): 5
[2]
  geomean (geomean fluorescence): 5

B1: HAI-1 (soluble, as titrated in the competition assay) (other, UniProt O43278 36-465, looked up)
chain: GPPPAPPGLPAGADCLNSFTAGVPGFVLDTNASVSNGATFLESPTVRRGWDCVRACCTTQNCNLALVELQPDRGEDAIAACFLINCLYEQNFVCKFAPREGFINYLTREVYRSYRQLRTQGFGGSGIPKAWAGIDLKVQPQEPLVLKDVENTDWRLLRGDTDVRVERKDPNQVELWGLKEGTYLFQLTVTSSDHPEDTANVTVTVLSTKQTEDYCLASNKVGRCRGSFPRWYYDPTEQICKSFVYGGCLGNKNNYLREEECILACRGVQGGPLRGSSGAQATFPQGPSMERRHPVCSGTCQPTQFRCSNGCCIDSFLECDDTPNCPDASDEAACEKYTSGFDELQRIHFPSDKGHCVDLPDTGLCKESIPRWYYNPFSEHCARFTYGGCYGNKNNFEEEQQCLESCRGISKKDVFGLRREIPIPSTGSVE
[3]
  IC50 (read off the curve): ~40 nM

From patent US20060171884A1 (Amgen, published 2006)
